T1: FcγRIIA-H167-Acro (human, UniProt P12318 36-218, limits assumed)
T1 construct: bought; His at 167; also called Human Fc gamma RIIA/CD32a (H167) Protein, His Tag
T1 sequence (looked up): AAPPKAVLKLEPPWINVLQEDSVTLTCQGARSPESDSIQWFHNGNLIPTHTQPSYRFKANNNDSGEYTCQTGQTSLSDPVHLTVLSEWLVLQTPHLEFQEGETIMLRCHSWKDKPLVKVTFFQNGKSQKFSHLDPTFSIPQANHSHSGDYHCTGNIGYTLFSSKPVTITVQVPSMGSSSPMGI

T2: FcγRIIA-R167-Sino (human, UniProt P12318 34-218, limits assumed)
T2 construct: bought; Arg at 167; also called FCRIIA-R167-Sino; CD32A Protein, Human, Recombinant (167 Arg, His Tag)
T2 sequence (looked up): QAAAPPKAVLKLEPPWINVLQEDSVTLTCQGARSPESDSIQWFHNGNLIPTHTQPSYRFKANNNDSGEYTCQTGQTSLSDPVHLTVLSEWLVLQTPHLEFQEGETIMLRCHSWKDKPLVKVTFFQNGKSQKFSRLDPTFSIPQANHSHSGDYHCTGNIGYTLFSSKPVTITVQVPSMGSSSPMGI

B1: CT4-4G12-IgG1 (antibody)
heavy: not shown
light: DIQMTQSPSFLSASVGDRVTITCRAGENIYSYLAWYQQKPGKAPKLLIYNARTLAEGVPSRFSGSGSGTEFTLTISSLQPEDFATYYCQHHYGSPRTFGGGTKLEIKRTVAAPSVFIFPPSDEQLKSGTASVVCLLNNFYPREAKVQWKVDNALQSGNSQESVTEQDSKDSTYSLSSTLTLSKADYEKHKVYACEVTHQGLSSPVTKSFNRGEC
notes: IgG1; also called humanized CTLA4 antibody
B2: PDL1-mIL7-3A (antibody, human IgG1, lambda)
heavy: EVQLLESGGGLVQPGGSLRLSCAASGFTFSSYIMMWVRQAPGKGLEWVSSIYPSGGITFYADTVKGRFTISRDNSKNTLYLQMNSLRAEDTAVYYCARIKLGTVTTVDYWGQGTLVTVSSASTKGPSVFPLAPSSKSTSGGTAALGCLVKDYFPEPVTVSWNSGALTSGVHTFPAVLQSSGLYSLSSVVTVPSSSLGTQTYICNVNHKPSNTKVDKKVEPKSCDKTHTCPPCPAPELLGGPSVFLFPPKPKDTLMISRTPEVTCVVVDVSHEDPEVKFNWYVDGVEVHNAKTKPREEQYNSTYRVVSVLTVLHQDWLNGKEYKCKVSNKALPAPIEKTISKAKGQPREPQVYTLPPSRDEGGGGSGGGGSECHIKDKEGKAYESVLMISIDELDKMTGTDSNCPNNEPNFFRKHVCDDTKEAAFLNRAARKLKQFLKMNISEEFNVHLLTVSQGTQTLVNCTSKEEKNVKEQKKNDACFLKRLLREIKTCWNKILKGSIGGGGSGGGGSVSLTCLVKGFYPSDIAVEWESNGQPENNYKTTPPVLDSDGSFFLYSKLTVDKSRWQQGNVFSCSVMHEALHNHYTQKSLSLSPGA
light: QSALTQPASVSGSPGQSITISCTGTSSDVGGYNYVSWYQQHPGKAPKLMIYDVSNRPSGVSNRFSGSKSGNTASLTISGLQAEDEADYYCSSYTSSSTRVFGTGTKVTVLGQPKANPTVTLFPPSSEELQANKATLVCLISDFYPGAVTVAWKADGSPVKAGVETTKPSKQSNNKYAASSYLSLTPEQWKSHRSYSCQVTHEGSTVEKTVAPTECS
notes: IgG1 immunocytokine
B3: PDL1-TGFbR2-3A-IgG4 (antibody)
heavy: EVQLLESGGGLVQPGGSLRLSCAASGFTFSSYIMMWVRQAPGKGLEWVSSIYPSGGITFYADTVKGRFTISRDNSKNTLYLQMNSLRAEDTAVYYCARIKLGTVTTVDYWGQGTLVTVSSASTKGPSVFPLAPCSRSTSESTAALGCLVKDYFPEPVTVSWNSGALTSGVHTFPAVLQSSGLYSLSSVVTVPSSSLGTKTYTCNVDHKPSNTKVDKRVESKYGPPCPPCPAPEFLGGPSVFLFPPKPKDTLMISRTPEVTCVVVDVSQEDPEVQFNWYVDGVEVHNAKTKPREEQFNSTYRVVSVLTVLHQDWLNGKEYKCKVSNKGLPSSIEKTISKAKGQPREPQVYTLPPSQEEGGGGSGGGGSIPPHVQKSVNNDMIVTDNNGAVKFPQLCKFCDVRFSTCDNQKSCMSNCSITSICEKPQEVCVAVWRKNDENITLETVCHDPKLPYHDFILEDAASPKCIMKEKKKPGETFFMCSCSSDECNDNIIFSEEYNTSNPDGGGGSGGGGSVSLTCLVKGFYPSDIAVEWESNGQPENNYKTTPPVLDSDGSFFLYSRLTVDKSRWQEGNVFSCSVMHEALHNHYTQKSLSLSLGK
light: QSALTQPASVSGSPGQSITISCTGTSSDVGGYNYVSWYQQHPGKAPKLMIYDVSNRPSGVSNRFSGSKSGNTASLTISGLQAEDEADYYCSSYTSSSTRVFGTGTKVTVLGQPKANPTVTLFPPSSEELQANKATLVCLISDFYPGAVTVAWKADGSPVKAGVETTKPSKQSNNKYAASSYLSLTPEQWKSHRSYSCQVTHEGSTVEKTVAPTECS
notes: IgG4 subtype of PDL1-TGFbR2-3A
B4: PDL1-avelumab (antibody, human IgG1, lambda)
heavy: not shown
light: QSALTQPASVSGSPGQSITISCTGTSSDVGGYNYVSWYQQHPGKAPKLMIYDVSNRPSGVSNRFSGSKSGNTASLTISGLQAEDEADYYCSSYTSSSTRVFGTGTKVTVLGQPKANPTVTLFPPSSEELQANKATLVCLISDFYPGAVTVAWKADGSPVKAGVETTKPSKQSNNKYAASSYLSLTPEQWKSHRSYSCQVTHEGSTVEKTVAPTECS
notes: IgG1; also called anti-PD-L1 IgG1 antibody; PD-L1 antibody
B5: PDL1-mIL7-3A-mIFNa4 (antibody, human IgG1, lambda)
heavy: EVQLLESGGGLVQPGGSLRLSCAASGFTFSSYIMMWVRQAPGKGLEWVSSIYPSGGITFYADTVKGRFTISRDNSKNTLYLQMNSLRAEDTAVYYCARIKLGTVTTVDYWGQGTLVTVSSASTKGPSVFPLAPSSKSTSGGTAALGCLVKDYFPEPVTVSWNSGALTSGVHTFPAVLQSSGLYSLSSVVTVPSSSLGTQTYICNVNHKPSNTKVDKKVEPKSCDKTHTCPPCPAPELLGGPSVFLFPPKPKDTLMISRTPEVTCVVVDVSHEDPEVKFNWYVDGVEVHNAKTKPREEQYNSTYRVVSVLTVLHQDWLNGKEYKCKVSNKALPAPIEKTISKAKGQPREPQVYTLPPSRDEGGGGSGGGGSECHIKDKEGKAYESVLMISIDELDKMTGTDSNCPNNEPNFFRKHVCDDTKEAAFLNRAARKLKQFLKMNISEEFNVHLLTVSQGTQTLVNCTSKEEKNVKEQKKNDACFLKRLLREIKTCWNKILKGSIGGGGSGGGGSVSLTCLVKGFYPSDIAVEWESNGQPENNYKTTPPVLDSDGSFFLYSKLTVDKSRWQQGNVFSCSVMHEALHNHYTQKSLSLSPGAGGGGSGGGGSGGGGSGGGGSCDLPHTYNLGNKRALTVLEEMRRLPPLSCLKDRKDFGFPLEKVDNQQIQKAQAILVLRDLTQQILNLFTSKDLSATWNATLLDSFCNDLHQQLNDLKACVMQEPPLTQEDSLLAVRTYFHRITVYLRKKKHSLCAWEVIRAEVWRALSSSTNLLARLSEEKE
light: QSALTQPASVSGSPGQSITISCTGTSSDVGGYNYVSWYQQHPGKAPKLMIYDVSNRPSGVSNRFSGSKSGNTASLTISGLQAEDEADYYCSSYTSSSTRVFGTGTKVTVLGQPKANPTVTLFPPSSEELQANKATLVCLISDFYPGAVTVAWKADGSPVKAGVETTKPSKQSNNKYAASSYLSLTPEQWKSHRSYSCQVTHEGSTVEKTVAPTECS
notes: 3A-HC format: mIL7 at the 3A site, mIFNa4 at the heavy chain C-terminus through a linker

What was measured:
FcRn [1] = target: T3, FcRn (human, UniProt P55899 24-297; P61769 21-119); experiment: SPR Biacore T200; binder captured on protein A chip, Fc receptor as analyte
T3 construct: bought; also called FcγRn; FcRn-Acro
T3 sequence (P55899 24-297 limits assumed, chain 1 of 2): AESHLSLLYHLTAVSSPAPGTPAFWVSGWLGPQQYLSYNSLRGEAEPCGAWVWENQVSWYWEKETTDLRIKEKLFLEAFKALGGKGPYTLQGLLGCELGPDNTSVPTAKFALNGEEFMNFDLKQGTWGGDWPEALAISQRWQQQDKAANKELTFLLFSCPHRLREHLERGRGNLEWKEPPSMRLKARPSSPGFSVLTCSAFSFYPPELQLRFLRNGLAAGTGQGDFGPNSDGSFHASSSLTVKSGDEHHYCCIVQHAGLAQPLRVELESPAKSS
T3 sequence (P61769 21-119 limits assumed, chain 2 of 2): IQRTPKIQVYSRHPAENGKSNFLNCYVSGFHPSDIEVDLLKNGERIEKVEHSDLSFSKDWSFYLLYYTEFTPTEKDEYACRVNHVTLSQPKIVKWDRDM
Method: (§1) Binding affinities of the fusion proteins PDL1-TGFbR2-3A (IgG1) (or PDL1-TGFbR2-3A-IgG1) and PDL1-TGFbR2-3A-IgG4 to human Fc receptors were measured by surface plasmon resonance (SPR) using Biacore™ T200 biosensor equipped with pre-immobilized protein A sensor chips. The Fc receptors included FcγRI-Sino, FcγRIIA-R167-Sino, FcγRIIIA-F176-Sino, FcγRIIIB-Sino, and FcγRn. A humanized CTLA4 antibody CT4-4G12-IgG1 (CT4-4G12, or 4G12; VH SEQ ID NO: 44, VL SEQ ID NO: 45) was used as a control to test binding affinity to FcγRn.

human CTLA4 (hCTLA4-His) = human CTLA4 (hCTLA4-His) (human, UniProt P16410 36-161, limits assumed); experiment: SPR Biacore T200; binder captured on protein A chip, target as analyte
human CTLA4 (hCTLA4-His), sequence (P16410 36-161 limits assumed): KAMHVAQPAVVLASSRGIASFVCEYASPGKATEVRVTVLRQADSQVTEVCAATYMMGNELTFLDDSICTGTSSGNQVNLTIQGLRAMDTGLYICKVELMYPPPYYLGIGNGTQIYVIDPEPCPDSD
Method: Binding affinities of the fusion proteins against human CTLA4 (hCTLA4-His) or human PD-L1 (hPDL1) were measured by surface plasmon resonance (SPR) using Biacore™ T200 biosensor equipped with pre-immobilized protein A sensor chips. A CTLA4 antibody CT4-4G12-IgG1 (CT4) was used as a control. ATOR1015-CD86 (CD86) and KN035-IgG1 (with D265A mutation in heavy chain constant domain) were also used as controls.

FcγRIIA-H167-Acro = target: T1, FcγRIIA-H167-Acro; experiment: SPR (Biacore T200), antibody captured on protein A sensor chip, Fc receptor as analyte; analyte range 800nm-6.25nm
Excerpt: (§2) The Fc receptors included FcγRIIB (FcγRIIB-Acro), FcγRIIA (FcγRIIA-H167-Acro), FcγRIIIA (FcγRIIIA-V176-Acro), FcγRIIIB (FcγRIIIB-NA1-Acro), FcγRI (FcγRI-Sino), and FcRn (FcRn-Acro).

FcγRIIIB-NA1-Acro = target: T4, FcγRIIIB-NA1-Acro (human, UniProt O75015 17-200, limits assumed); experiment: as above
T4 construct: bought; also called Human Fc gamma RIIIB/CD16b (NA1) Protein, His Tag
T4 sequence (O75015 other isoform, or with tags, fused parts or gaps limits assumed): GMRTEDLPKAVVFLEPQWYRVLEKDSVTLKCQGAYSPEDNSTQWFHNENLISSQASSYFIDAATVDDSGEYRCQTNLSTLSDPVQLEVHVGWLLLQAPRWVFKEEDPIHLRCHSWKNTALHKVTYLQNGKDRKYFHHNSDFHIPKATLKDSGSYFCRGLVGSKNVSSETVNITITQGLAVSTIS
Excerpt: as §2

FcRn [2] = target: T3, FcRn; experiment: SPR (Biacore T200), antibody captured on protein A sensor chip, FcRn-Acro as analyte; analyte range 1000nm-15.625nm
Excerpt: as §2

FcγRI-Sino [3] = target: T5, FcγRI-Sino (human, UniProt P12314 16-288, limits assumed); experiment: SPR (Biacore T200), antibody captured on protein A sensor chip, Fc receptor as analyte; analyte range 400nm-6.25nm
T5 construct: bought; also called CD64 Protein, Human, Recombinant (His Tag)
T5 sequence (P12314 16-288 limits assumed): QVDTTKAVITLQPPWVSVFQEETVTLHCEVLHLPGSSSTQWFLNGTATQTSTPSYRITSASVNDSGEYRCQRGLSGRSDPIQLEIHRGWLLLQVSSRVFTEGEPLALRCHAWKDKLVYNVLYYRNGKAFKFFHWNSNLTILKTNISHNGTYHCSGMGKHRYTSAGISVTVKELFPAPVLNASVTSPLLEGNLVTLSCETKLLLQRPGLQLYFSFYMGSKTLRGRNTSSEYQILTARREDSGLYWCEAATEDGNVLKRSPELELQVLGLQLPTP
Excerpt: as §2

FcγRIIIA-V176-Acro = target: T6, FcγRIIIA-V176-Acro (human, UniProt P08637 17-208); experiment: SPR (Biacore T200), antibody captured on protein A sensor chip, Fc receptor as analyte; analyte range 400nm-3.125nm
T6 construct: bought; Val at 176; also called Human Fc gamma RIIIA/CD16a (V176) Protein, His Tag
T6 sequence (P08637 17-208 F176V limits assumed): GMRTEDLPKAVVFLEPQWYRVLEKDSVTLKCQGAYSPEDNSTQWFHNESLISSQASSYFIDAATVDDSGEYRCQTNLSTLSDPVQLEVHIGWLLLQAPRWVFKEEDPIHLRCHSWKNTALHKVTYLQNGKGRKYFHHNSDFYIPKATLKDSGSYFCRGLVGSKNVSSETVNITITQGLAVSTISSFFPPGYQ
Excerpt: as §2

FcγRIIIB-Sino = target: T7, FcγRIIIB-Sino (human, UniProt O75015 17-200, limits assumed); experiment: SPR Biacore T200; binder captured on protein A chip, Fc receptor as analyte
T7 construct: bought; also called FCRIIIB-Sino; CD16b Protein, Human, Recombinant (NA1 allotypes, His Tag)
T7 sequence (O75015 other isoform, or with tags, fused parts or gaps limits assumed): as the sequence (O75015 other isoform, or with tags, fused parts or gaps limits assumed) above
Method: as §1

FcγRIIA-R167-Sino = target: T2, FcγRIIA-R167-Sino; experiment: as above
Method: as §1

FcγRI-Sino [4] = target: T5, FcγRI-Sino; experiment: as above
Method: as §1

Binder | Kd (FcRn [1]) [nM] | Kd (human CTLA4 (hCTLA4-His)) [nM] | koff (human CTLA4 (hCTLA4-His)) [s⁻¹] | kon (human CTLA4 (hCTLA4-His)) [M⁻¹ s⁻¹] | Kd (FcγRIIA-H167-Acro) [nM] | Kd (FcγRIIIB-NA1-Acro) [nM] | Kd (FcRn [2]) [nM] | Kd (FcγRI-Sino [3]) [nM] | Kd (FcγRIIIA-V176-Acro) [nM] | Kd (FcγRIIIB-Sino) [nM] | Kd (FcγRIIA-R167-Sino) [nM] | Kd (FcγRI-Sino [4]) [nM]
B1 | 126 | 5.91 | 0.00151 | 256000 | – | – | – | – | – | – | – | –
B2 | – | – | – | – | 426 | 479 | 527 | 194 | 75.5 | – | – | –
B3 | 214 | – | – | – | – | – | – | – | – | 576 | 1780 | 273
B4 | – | – | – | – | 1050 | 33100 | 1250 | 101 | 263 | 1210 | 692 | 6.52
B5 | – | – | – | – | 115 | 501 | 160 | 27.1 | 17.3 | – | – | –
